According to the supplement of paper PMC10126150:
± gives the standard deviation of the averaged measurements.

tested on: ATP; test: switch fluorescence ratio, 500 uM ATP over buffer (Cy3 cluster intensity, sum of 5 cycles each) (fold (ratio)); higher = stronger signal-on switching upon ATP binding; sequences stand for … in TCGTCGGCAGCGTCAGATGTGTATAAGAGACAGTTTTTTTTTTTTTTTTTTTTTTTTT…TC; details: aptamer strand: ATP DNA aptamer (quencher-CACCTGGGGGAGTATTGCGGAGGAAGG + anchor), 100 nM annealed; ATP concentration: 500 uM
Outline: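 Cy3-labelled switching-strand clusters on a modified Illumina MiSeq flow-cell were annealed to 100 nM quencher-labelled ATP aptamer, imaged in selection buffer, then imaged after 15 min with 500 uM ATP at 22 °C. Five buffer/ATP cycles ran, with NaOH stripping and re-annealing between them. The fluorescence ratio is summed target-cycle over summed buffer-cycle Cy3 intensity per cluster, averaged per switch-domain sequence. Clusters outside 100-1000 RFU were excluded.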
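Also: ATP exposure 15 min at 22 °C before imaging.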

| Sequence | switch fluorescence ratio |
| --- | --- |
| AAAGCTTATT | 0.99822 ± 0.00097 |
| GTTTCACGGT | 1.003 ± 0.0079 |
| TCAAGATTTT | 0.975 ± 0.025 |
| AGTCGGAAAG | 1.02 ± 0.015 |
| ATAGTGTGGC | 0.952 ± 0.029 |
| GAGAGCCGTT | 1 ± 0.017 |
| GTTTAAGGCC | 1.01 ± 0.043 |
| GTGGCTGGGG | 1 ± 0.029 |
| AAGGGGTTTT | 1 ± 0.036 |
| GAGGGCCGCA | 1.05 ± 0.011 |
| AATTGGCGGT | 1.03 ± 0.027 |
| AACATGGGGC | 1.02 ± 0.041 |
| CCTAGGGGTG | 1.32 ± 0.27 |
| GATGGGGGTA | 0.973 ± 0.033 |
| TGTGAATTCG | 1.01 ± 0.024 |
| TACGGAACGG | 1.07 ± 0.029 |
| TCAAACCGGT | 0.983 ± 0.043 |
| TGGGGGCCCT | 0.996 ± 0.026 |
| TTATGTTTAA | 0.999 ± 0.025 |
| GCTGTTAATG | 0.984 ± 0.006 |
| TCAAAGACGG | 1.02 ± 0.016 |
| AAATCATATT | 0.968 ± 0.0054 |
| TAACTAATAA | 1.01 ± 0.018 |
| GGGGACTTGT | 0.9988 ± 0.0082 |
| TAAGATAAAA | 1.02 ± 0.017 |

| Sequence | switch fluorescence ratio |
| --- | --- |
| GACAGCAGGT | 1.07 ± 0.011 |
| TTTCTTTTTA | 0.9791 ± 0.0032 |
| TTCGGATTGG | 1.01 ± 0.0061 |
| AGCATATAGG | 1.009 ± 0.0059 |
| ACGTCAAGTA | 0.985 ± 0.022 |
| TTTTGTAGTG | 0.988 ± 0.042 |
| ATATGGAAAT | 1.006 ± 0.0027 |
| ATTGAGCCAG | 1.03 ± 0.023 |
| ATCGTTTTTT | 0.973 ± 0.018 |
| TTTTTAACGT | 1.02 ± 0.027 |
| GACATATTAT | 1.013 ± 0.0057 |
| GAGATCTTTG | 0.967 ± 0.015 |
| GCTATGGGGA | 1.02 ± 0.02 |
| TGAATATATT | 1.01 ± 0.022 |
| CATACAATTG | 1.06 ± 0.091 |
| TAATTTTGGG | 0.999 ± 0.047 |
| CGTCTAAGGT | 0.98 ± 0.044 |
| GGTGAAGTGT | 1 ± 0.0051 |
| TGGGTTAATG | 0.9912 ± 0.0069 |
| TATCTGGGTA | 0.978 ± 0.01 |
| ATAGGTTTGT | 0.989 ± 0.013 |
| CGGGGAGTTT | 0.978 ± 0.05 |
| AGGTGTGAGA | 1.06 ± 0.044 |
| TAATGTATGA | 0.972 ± 0.04 |
| TGCTTAAGAT | 0.99 ± 0.023 |

| Sequence | switch fluorescence ratio |
| --- | --- |
| GGGGGTAATG | 0.974 ± 0.035 |
| TTAAAGCACT | 1.19 ± 0.2 |
| GGGGGGCTTA | 0.999 ± 0.018 |
| GCCCTGGGGA | 2.74 ± 2.4 |
| ACCATGTTTG | 1.012 ± 0.0072 |
| GGGAATCGCT | 0.973 ± 0.023 |
| AAGTCAAAGT | 1.03 ± 0.051 |
| TGGGTGGTCT | 0.9972 ± 0.0054 |
| TATCGAAAAA | 0.967 ± 0.054 |
| CATTAGGGTC | 0.932 ± 0.019 |
| ACGCCCATTT | 1.15 ± 0.06 |
| TGATTTGGGG | 0.9675 ± 0.0076 |
| TTCGTTAAAG | 0.9612 ± 0.002 |
| CGGCAATGGT | 1.87 ± 1.1 |
| CAAAATATAT | 1.06 ± 0.042 |
| AGGTTTTTAT | 1.06 ± 0.16 |
| GGTGTTATGC | 1.01 ± 0.015 |
| GACTAATAGG | 0.992 ± 0.012 |
| GATAATGGTT | 0.964 ± 0.011 |
| TAACGATGGG | 1.014 ± 0.01 |
| CTATGGGGGA | 1.04 ± 0.02 |
| CGGGAGGACT | 0.989 ± 0.057 |
| GATCGGGCCG | 0.975 ± 0.052 |
| TACCGTGTCC | 1.11 ± 0.06 |
| AGATTGGGCT | 0.997 ± 0.03 |

| Sequence | switch fluorescence ratio |
| --- | --- |
| TTGCACGGTT | 1.04 ± 0.06 |
| GGGGATTGGG | 0.987 ± 0.028 |
| GGAAAACTGG | 1.01 ± 0.0017 |
| CAAGGGTTGC | 0.987 ± 0.056 |
| CTGCAAGCGG | 1.28 ± 0.057 |
| CACCTCAGAT | 1.05 ± 0.023 |
| AATTGCTCGT | 1 ± 0.016 |
| TTTAATGTAC | 1.36 ± 0.32 |
| ATATTACGGG | 1.03 ± 0.039 |
| GCATTACTTG | 1.16 ± 0.027 |
| AGTTTGGGTG | 1.01 ± 0.0051 |
| GCCTCGTTGG | 0.98 ± 0.012 |
| GCATTGGCGG | 0.993 ± 0.044 |
| CGGGGGATCA | 1.01 ± 0.049 |
| TCGGCAATGT | 2.32 ± 1.6 |
| GCCTGGTCAG | 0.979 ± 0.013 |
| GCTGTAATAT | 1.11 ± 0.015 |
| CTTGATTAGG | 0.9981 ± 0.0037 |
| ATTTGGTAGG | 1 ± 0.012 |
| AGCACTCTAT | 1.04 ± 0.024 |
| AATTTGTCAT | 0.972 ± 0.045 |
| AAAGTTAATA | 0.9897 ± 0.0064 |
| TAGAAAAGAG | 1.01 ± 0.024 |
| TGGGGGTTGC | 0.982 ± 0.042 |
| ATGGGTTAGA | 1.05 ± 0.037 |
